From the Human Domainome abundance scans (Beltran et al. 2025)

B1: Zinc finger homeobox protein 3, residues 2244 to 2299; numbered along this chain, Q15911 (parent)
chain: SSRTRFTDYQLRVLQDFFDANAYPKDDEFEQLSNLLNLPTRVIVVWFQNARQKARK

Variants of: B1
Assay: abundance fitness (aPCA) (normalised: wild type 0, dead -1); higher = more abundant; growth selection in yeast, the domain comes from the species named
Details: Homo sapiens

Abundance fitness: each site, then its substitutions
L38: R -0.517, T -0.166, E -0.278, D -1.07, H -0.967, K -0.531, F -0.522, C -0.451, Y -0.625, V -0.226, S -0.506, M -0.026, Q -0.174, G -0.884, P -1.03, N -0.76
E30: G -0.357, S -0.135
Q31: A -0.192, D -0.193, I 0.117, Y -0.186, G -0.055, K 0.022, W -0.279, M -0.146, T 0.035, N 0.366, L -0.257, S -0.082, R -0.007, H -0.165, C -0.031, F 0.162, E -0.066, P -0.764
S33: W -0.848, A -0.109, R -0.05, I -1.08, H -0.085, Y -0.871, M -0.638, C -0.498, T -0.316, N -0.728, D -0.833, Q -0.507, G -0.083, E -0.5, V -0.452, K -0.129
L36: S -0.272, A -0.238, V 0.024, R -0.748, D -0.908, C -0.313, G -0.929, I -0.459, K -0.95, F -0.659, T 0.013, M -0.375, Q -0.988, H -1.06, E -0.892, W -0.811, Y -0.86, P -1.06
L32: I -0.17, M 0.003, C -0.641, W -0.56, P -1.02, V -0.151, A -0.568, T -0.497, E -0.957, G -0.842, D -0.637, Y -0.19, R -0.856, S -0.812, H -0.878, F -0.546
N37: H -0.013, R -0.057, S -0.064, E -0.034, G -0.046, I -0.289, K -0.009, T -0.179, P -0.831, D -0.032, A -0.096, F -0.236, V -0.117, M -0.038, Q -0.12
R41: W -0.167, S 0.021, C -0.002, N 0.195, G 0.057, K 0.074, V 0.108, Q 0.018, L -0.075, M 0.005, Y -0.119, F -0.011, A 0.022, P -0.046, D 0.173, I 0.052, H 0.117
F29: M -0.271, I 0.071, S -0.423, P -0.915, R -0.324, D -0.955, T -0.27, L -0.035, V -0.102, Y -0.052, W -0.27, H -0.484, A -0.362, Q -0.435, K -0.412, N -0.622
A22: F -0.353, P 0.101, I -0.07, H -0.125, D 0.219, R -0.147, C -0.156, L -0.129, K -0.17, V -0.14, Q -0.127, M 0.106, E 0.082, G 0.015, W -0.054, Y -0.196, T 0.01, N -0.024
P24: A -0.555, R -0.633, S -0.734, W -0.381, G -1.24, N -0.922, F -0.533, V -0.657, T -0.856, H -0.927
P39: H -0.149, W -1.08, G -0.297, N -0.157, E -0.06, K -0.197, R -0.258, D 0.196, Q -0.028, V -1.09, C -0.634, L -0.786, T -0.209, Y -0.99, S 0.035, A -0.342, F -0.715
N34: W -0.61, T -0.145, Q -0.208, M -0.024, K 0.137, L -0.17, Y -0.161, P -0.137, G -0.058, S 0.066, C -0.343, V 0.001, A 0.067, D -0.199, R -0.113, E 0.118
D26: F -0.332, Y -0.105, R -0.16, W -0.376, Q -0.188, P -0.163, S -0.219, L -0.307, E -0.214, V -0.055, I 0.038, M 0.018, T 0.021, C -0.506, G -0.247, H -0.683, K -0.1
L35: A -0.078, E -0.107, N -0.004, D 0.115, I 0.067, C -0.176, S 0.007, R 0.085, F -0.382, M 0.085, G -0.06, Y -0.129, H -0.088, K 0.201, P -0.918, T 0.117, V 0.041
Y23: E 0.139, M 0.041, S -0.051, F 0.122, A -0.188, T -0.043, L -0.161, N 0.013, G -0.332, Q -0.011, V -0.099, D -0.018, C -0.283, R -0.019, W 0.019, I 0.092, P -0.749, K -0.13
K25: H -0.267, P -0.228, R 0.013, Q -0.26, F -0.338, E -0.306, D -0.466, T -0.161, G -0.14, S -0.133, V -0.115, L -0.136, C -0.184, A -0.075, I -0.226, W -0.512
T40: A -0.119, D -0.356, G -0.208, C -0.012, I -0.175, L -0.105, R -0.139, M 0.073, H -0.127, K 0.221, P -0.047, Q -0.214, W -0.136, F -0.107, S 0.025
E28: G -0.488, S -0.295, K -0.422, T -0.236, Y -0.785, W -0.719, H -0.435, D 0.2, N -0.39, R -0.481, V -0.142, C -0.539, I -0.374, M -0.347, L -0.739, Q -0.169, F -0.603
N21: P -0.74, Q -0.26, T 0.011, S -0.157, M -0.394, W -0.722, R -0.237, V -0.422
D27: R -0.147, E -0.084, P -0.388, L -0.17, I -0.17, F -0.233, K -0.113, N -0.063, Q -0.121, G 0.095, C -0.294, S -0.077, A -0.117, M -0.037, Y -0.16, W -0.157, V -0.215, T -0.078
V42: A -0.045, I -0.022, G -0.056, P 0.026, K -0.036, L 0.039, E 0.174, N 0.003, H 0.022, D 0.055, C -0.112, Q -0.028, M -0.059
